# Test results: PMC10681739, “High-throughput data and modeling reveal insights into the mechanisms of cooperative DNA-binding by transcription factor proteins”
# B1: Table S3 B row 871 (dsDNA)
# DNA 1: ATGACCGATCAACCGCAAAGGCCGGGAATGCGTCAG
# DNA 2: CTGACGCATTCCCGGCCTTTGCGGTTGATCGGTCAT
# B2: Table S3 B row 2175 (dsDNA)
# DNA 1: AAATCAAAACCACAATCAGATACCACTTGCTGCCCA
# DNA 2: TGGGCAGCAAGTGGTATCTGATTGTGGTTTTGATTT
# B3: Table S3 B row 2109 (dsDNA)
# DNA 1: ATGTCAGTAACCACAAACGAGCCACAGCATAAGAAC
# DNA 2: GTTCTTATGCTGTGGCTCGTTTGTGGTTACTGACAT
# B4: Table S3 B row 1458 (dsDNA)
# DNA 1: TTCTCCACTGCCTTCTTTACCTCACCTACCACATAA
# DNA 2: TTATGTGGTAGGTGAGGTAAAGAAGGCAGTGGAGAA
# B5: Table S3 B row 1412 (dsDNA)
# DNA 1: GTCGCCCCCACCGCAAGTATTTCAGCTTCCCTCCGC
# DNA 2: GCGGAGGGAAGCTGAAATACTTGCGGTGGGGGCGAC
# B6: Table S3 B row 518 (dsDNA)
# DNA 1: GACCCACTGCGGTCATGCTGCTCCCTGCCCAACCCG
# DNA 2: CGGGTTGGGCAGGGAGCAGCATGACCGCAGTGGGTC
# B7: Table S3 B row 3940 (dsDNA)
# DNA 1: TCTCTAGTTCCCATTATTTCTGTGGTTAATTTCACC
# DNA 2: GGTGAAATTAACCACAGAAATAATGGGAACTAGAGA
# B8: Table S3 B row 586 (dsDNA)
# DNA 1: CTTGTCCCTTGTGGTTTTTTGCATTTGCTGTTCCCT
# DNA 2: AGGGAACAGCAAATGCAAAAAACCACAAGGGACAAG
# B9: Table S3 B row 1223 (dsDNA)
# DNA 1: ACTGCTCAAACCACAAACGATAGCAGCAAAGGCCTG
# DNA 2: CAGGCCTTTGCTGCTATCGTTTGTGGTTTGAGCAGT
# B10: Table S3 B row 1899 (dsDNA)
# DNA 1: CCGCCGCGACCGCAGGCCTCCGTTCAGCCGGGGTAA
# DNA 2: TTACCCCGGCTGAACGGAGGCCTGCGGTCGCGGCGG
# B11: Table S3 B row 3404 (dsDNA)
# DNA 1: TTGGTCTTGTGGTTTTGCAAGGCAGGGGTGATATAT
# DNA 2: ATATATCACCCCTGCCTTGCAAAACCACAAGACCAA
# B12: Table S3 B row 3915 (dsDNA)
# DNA 1: CACCTGACCACAAGGCACACGAAGATCCTTATCACA
# DNA 2: TGTGATAAGGATCTTCGTGTGCCTTGTGGTCAGGTG
# B13: Table S3 B row 1205 (dsDNA)
# DNA 1: TCAGCCTGTGGTTTCTGAAGACCTCCTCGAAGTCAT
# DNA 2: ATGACTTCGAGGAGGTCTTCAGAAACCACAGGCTGA
# B14: Table S3 B row 3061 (dsDNA)
# DNA 1: CCTCTGCCCAACCACAATTTTCCCTTCGTCAGCCTT
# DNA 2: AAGGCTGACGAAGGGAAAATTGTGGTTGGGCAGAGG
# B15: Table S3 B row 207 (dsDNA)
# DNA 1: GGCTCAAAACCACAGAGAAGCCTCCTATAGTGGGAT
# DNA 2: ATCCCACTATAGGAGGCTTCTCTGTGGTTTTGAGCC
# B16: Table S3 B row 1736 (dsDNA)
# DNA 1: CTCCTGTGGTTTCTAAACTGTCAGCATGTTGGCTTG
# DNA 2: CAAGCCAACATGCTGACAGTTTAGAAACCACAGGAG
# B17: Table S3 B row 533 (dsDNA)
# DNA 1: AGTTGTGAAACCACAAAACACAGAAAGGAGGTGGTC
# DNA 2: GACCACCTCCTTTCTGTGTTTTGTGGTTTCACAACT
# B18: Table S3 B row 1633 (dsDNA)
# DNA 1: CCTTTACGTCCTTTTACTTCTAACCACAGAATTAAA
# DNA 2: TTTAATTCTGTGGTTAGAAGTAAAAGGACGTAAAGG
# B19: Table S3 B row 2983 (dsDNA)
# DNA 1: ACTCTGTGGTTTCATTGCCTGCCCGTAAATGCAGCT
# DNA 2: AGCTGCATTTACGGGCAGGCAATGAAACCACAGAGT
# B20: Table S3 B row 2650 (dsDNA)
# DNA 1: CTCCTGGGCTTGTGGTTAGAGCATCATGCAGCAAGG
# DNA 2: CCTTGCTGCATGATGCTCTAACCACAAGCCCAGGAG
# B21: Table S3 B row 875 (dsDNA)
# DNA 1: CTCCTGGGCTTGTGGTTAGAACATGCTGCAGCAAAG
# DNA 2: CTTTGCTGCAGCATGTTCTAACCACAAGCCCAGGAG
# B22: Table S3 B row 2890 (dsDNA)
# DNA 1: CGGTCTGACCACAAACTCTGCCTTACGGCAAGGCTG
# DNA 2: CAGCCTTGCCGTAAGGCAGAGTTTGTGGTCAGACCG
# B23: Table S3 B row 1595 (dsDNA)
# DNA 1: CAGTAGGCTGCGGTTGCGCGCGCCGGGTGTGGGCCC
# DNA 2: GGGCCCACACCCGGCGCGCGCAACCGCAGCCTACTG
# B24: Table S3 B row 601 (dsDNA)
# DNA 1: GGTTCCTTGCGGTTCGCGGCGTGCCGGGCGTGACAA
# DNA 2: TTGTCACGCCCGGCACGCCGCGAACCGCAAGGAACC
# B25: Table S3 B row 2477 (dsDNA)
# DNA 1: GGTGCGGTTAAGGCGAGGCTCCTTCTTTACTGTGAC
# DNA 2: GTCACAGTAAAGAAGGAGCCTCGCCTTAACCGCACC
# B26: Table S3 B row 2560 (dsDNA)
# DNA 1: TGAGGTTGTGGTTAGGCAGGACGAAGCCGTTTGTAG
# DNA 2: CTACAAACGGCTTCGTCCTGCCTAACCACAACCTCA
# B27: Table S3 B row 3681 (dsDNA)
# DNA 1: CGGCACCCTCCTTCGTCCCTGCCAACCGCCTCCACC
# DNA 2: GGTGGAGGCGGTTGGCAGGGACGAAGGAGGGTGCCG
# B28: Table S3 B row 2093 (dsDNA)
# DNA 1: GTTAACCGCACTGCCGCTGGCTGGGTGTCCGCGGCA
# DNA 2: TGCCGCGGACACCCAGCCAGCGGCAGTGCGGTTAAC
# B29: Table S3 B row 2874 (dsDNA)
# DNA 1: TCAGTGCGGTCAGGGAGTCTGTACTGCCTGGATGGC
# DNA 2: GCCATCCAGGCAGTACAGACTCCCTGACCGCACTGA
# B30: Table S3 B row 730 (dsDNA)
# DNA 1: GTGCCTGACCACAAACCAACATTGCCTGTCTCAATT
# DNA 2: AATTGAGACAGGCAATGTTGGTTTGTGGTCAGGCAC
# B31: Table S3 B row 2134 (dsDNA)
# DNA 1: CACCTTGTGGTTTCTCTGAGTGTCACACCTCCCCAG
# DNA 2: CTGGGGAGGTGTGACACTCAGAGAAACCACAAGGTG
# B32: Table S3 B row 2945 (dsDNA)
# DNA 1: GCTCCTCACTGCGGTCACAGCCACATGCTGCAGAGC
# DNA 2: GCTCTGCAGCATGTGGCTGTGACCGCAGTGAGGAGC
# Biological target: RUNX1 (Homo sapiens, UniProt Q01196)
# Test: gcPBM; 2 nM RUNX1
# Details: tags: N-terminal GST (pDEST15), kept (PMC6008103); label: surface-attached array probe
# Sequence of RUNX1 (Q01196 whole entry): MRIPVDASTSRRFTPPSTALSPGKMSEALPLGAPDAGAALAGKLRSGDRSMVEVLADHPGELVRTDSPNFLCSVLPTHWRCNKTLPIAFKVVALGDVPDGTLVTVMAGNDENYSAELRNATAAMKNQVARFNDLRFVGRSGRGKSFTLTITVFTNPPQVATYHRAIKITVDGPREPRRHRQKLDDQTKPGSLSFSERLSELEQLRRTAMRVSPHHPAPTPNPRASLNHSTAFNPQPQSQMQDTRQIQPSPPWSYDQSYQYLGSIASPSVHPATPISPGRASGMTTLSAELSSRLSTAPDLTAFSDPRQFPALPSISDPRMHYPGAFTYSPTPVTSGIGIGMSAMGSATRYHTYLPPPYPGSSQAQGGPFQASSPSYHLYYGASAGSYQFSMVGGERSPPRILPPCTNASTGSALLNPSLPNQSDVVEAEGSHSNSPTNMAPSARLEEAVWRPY
row,Binder,binding signal
1,B1,"7280 PBM fluorescence, median of replicate spots"
2,B2,"6180 PBM fluorescence, median of replicate spots"
3,B3,"5490 PBM fluorescence, median of replicate spots"
4,B4,"5560 PBM fluorescence, median of replicate spots"
5,B5,"6050 PBM fluorescence, median of replicate spots"
6,B6,"6470 PBM fluorescence, median of replicate spots"
7,B7,"5800 PBM fluorescence, median of replicate spots"
8,B8,"7790 PBM fluorescence, median of replicate spots"
9,B9,"6810 PBM fluorescence, median of replicate spots"
10,B10,"6120 PBM fluorescence, median of replicate spots"
11,B11,"8240 PBM fluorescence, median of replicate spots"
12,B12,"5610 PBM fluorescence, median of replicate spots"
13,B13,"6080 PBM fluorescence, median of replicate spots"
14,B14,"6030 PBM fluorescence, median of replicate spots"
15,B15,"5720 PBM fluorescence, median of replicate spots"
16,B16,"6800 PBM fluorescence, median of replicate spots"

row,Binder,binding signal
1,B17,"5640 PBM fluorescence, median of replicate spots"
2,B18,"6510 PBM fluorescence, median of replicate spots"
3,B19,"5930 PBM fluorescence, median of replicate spots"
4,B20,"6170 PBM fluorescence, median of replicate spots"
5,B21,"6070 PBM fluorescence, median of replicate spots"
6,B22,"5700 PBM fluorescence, median of replicate spots"
7,B23,"5670 PBM fluorescence, median of replicate spots"
8,B24,"5880 PBM fluorescence, median of replicate spots"
9,B25,"6190 PBM fluorescence, median of replicate spots"
10,B26,"7390 PBM fluorescence, median of replicate spots"
11,B27,"5850 PBM fluorescence, median of replicate spots"
12,B28,"6840 PBM fluorescence, median of replicate spots"
13,B29,"5600 PBM fluorescence, median of replicate spots"
14,B30,"6950 PBM fluorescence, median of replicate spots"
15,B31,"6600 PBM fluorescence, median of replicate spots"
16,B32,"6290 PBM fluorescence, median of replicate spots"
